Biological target: T1, Human cytosolic aspartyl-tRNA synthetase (human), P14868
T1 chain: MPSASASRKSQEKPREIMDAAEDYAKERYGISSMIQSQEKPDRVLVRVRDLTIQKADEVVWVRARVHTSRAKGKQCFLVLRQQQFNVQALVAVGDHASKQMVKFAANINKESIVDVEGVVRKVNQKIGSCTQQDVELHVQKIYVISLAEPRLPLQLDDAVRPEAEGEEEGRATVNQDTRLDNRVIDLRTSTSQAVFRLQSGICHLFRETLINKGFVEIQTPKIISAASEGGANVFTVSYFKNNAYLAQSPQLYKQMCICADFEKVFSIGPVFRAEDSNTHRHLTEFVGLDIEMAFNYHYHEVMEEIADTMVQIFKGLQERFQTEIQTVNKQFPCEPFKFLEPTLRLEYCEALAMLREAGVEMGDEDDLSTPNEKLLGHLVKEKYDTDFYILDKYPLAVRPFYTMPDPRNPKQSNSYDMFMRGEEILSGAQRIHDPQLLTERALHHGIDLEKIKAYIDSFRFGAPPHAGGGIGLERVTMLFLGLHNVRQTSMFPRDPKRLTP
Assay: crystal structure
Conditions: remark: other sources report otherwise

B1: Human cytosolic aspartyl-tRNA synthetase, P14868 1-501 (enzyme)
chain: MPSASASRKSQEKPREIMDAAEDYAKERYGISSMIQSQEKPDRVLVRVRDLTIQKADEVVWVRARVHTSRAKGKQCFLVLRQQQFNVQALVAVGDHASKQMVKFAANINKESIVDVEGVVRKVNQKIGSCTQQDVELHVQKIYVISLAEPRLPLQLDDAVRPEAEGEEEGRATVNQDTRLDNRVIDLRTSTSQAVFRLQSGICHLFRETLINKGFVEIQTPKIISAASEGGANVFTVSYFKNNAYLAQSPQLYKQMCICADFEKVFSIGPVFRAEDSNTHRHLTEFVGLDIEMAFNYHYHEVMEEIADTMVQIFKGLQERFQTEIQTVNKQFPCEPFKFLEPTLRLEYCEALAMLREAGVEMGDEDDLSTPNEKLLGHLVKEKYDTDFYILDKYPLAVRPFYTMPDPRNPKQSNSYDMFMRGEEILSGAQRIHDPQLLTERALHHGIDLEKIKAYIDSFRFGAPPHAGGGIGLERVTMLFLGLHNVRQTSMFPRDPKRLTP
stoichiometry N: 2
